Laboratory results as given in PMC9283966.

Experiments:
Details in all cases: glycan lost
[1] = chromogenic anti-FXa assay, recombinant protein
[2] = Western blot of conditioned medium
[3] = Western blot of thrombin-antithrombin complexes
[4] = control: β antithrombin (Ala169)
[5] = control: wild type (Ser169 background)

Substance | other: protease inhibitory activity, other: anti-FXa activity [1, 4] | expression_or_secretion [2, 4] | other: protease inhibitory activity [3, 4] | other: protease inhibitory activity, other: anti-FXa activity [1, 5] | expression_or_secretion [2, 5] | other: protease inhibitory activity [3, 5]
antithrombin: His224 in β background | abolishes | decreases | abolishes |  |  | 
antithrombin: p.Asn224His |  |  |  | no change, 1.38 vs 1.39 | decreases | no change
